Key:
[1] = molecular target: Tremfya Fab with a lambda light chain and binding specificity for IL23 (from the monoclonal antibody guselkumab); assay: BLI (ForteBio), biotinylated ligand on sensor, 1:1 fit
[2] = molecular target: dimeric human IgG-lambda (Southern Biotech, Birmingham AL); assay: as above
[3] = molecular target: Herceptin Fab with a kappa light chain and binding specificity for Her2/neu (from the monoclonal antibody trastuzumab); assay: as above
[4] = molecular target: Praluent (IgG1 monoclonal antibody); assay: BLI, biotinylated ligand on sensor; 'Binding affinity (nM)'
[5] = molecular target: Dupixent (IgG4 monoclonal antibody); assay: as above

Row | Binder | Kd [1] [nM] | Kd [2] [nM] | Kd [3] [nM] | Kd [4] [nM] | Kd [5] [nM]
1 | affinity ligand SEQ ID NO: 83 (designed binder, biotinylated (AviTag system)) MGGGGSAAAGDEADRWADLGAAYAARGDYDRAIEYYQRALELDPNNAWAWWDLGVAYAARGDYDRAIEYYQRALELDPNNAVAWRRLGHAYAARGDYDRAIEYYQRALELDPNNELAREQLGRARRARRGQAGQGGGSGLNDIFEAQKIEWHECHHHHHH | 8 | < 1 | 22 | – | –
2 | affinity ligand SEQ ID NO: 85 (designed binder, biotinylated (AviTag system)) MGGGGSAAAGDEAERWDYLGAAYAARGDYDRAIEYYQRALELDPNNAWAWWDLGLAYAARGDYDRAIEYYQRALELDPNNAVAWFRLGWAYAARGDYDRAIEYYQRALELDPNNELARSELENARRARRGQAGQGGGSGLNDIFEAQKIEWHECHHHHHH | 26 | < 1 | 53 | – | –
3 | affinity ligand SEQ ID NO: 82 (designed binder, biotinylated (AviTag system)) MGGGGSAAAGDEAGRWYDLGAAYAARGDYDRAIEYYQRALELDPNNAWAWWELGVAYAARGDYDRAIEYYQRALELDPNNAVAWARLGIAYAARGDYDRAIEYYQRALELDPNNEVARDALEYARRARRGQAGQGGGSGLNDIFEAQKIEWHECHHHHHH | 6 | < 1 | 23 | – | –
4 | affinity ligand SEQ ID NO: 84 (designed binder, biotinylated (AviTag system)) MGGGGSAAAGDEGGRWEGQGAAYAARGDYDRAIEYYERALELDPNNAWAWWDLGVAYAARGDYDRAIEYYERALELDPDDATAWSRLGHAYAARGDYDRAIEYYERALELDPEDETARYLLEHARRARQGQAGQGGGSGLNDIFEAQKIEWHECHHHHHH | 18 | < 1 | 32 | – | –
5 | affinity ligand SEQ ID NO: 87 (designed binder, biotinylated (AviTag system)) MGGGGSAAAGDEAQHWENQGAAYAARGDYDRAIEYYERALELDPNNAWAWWELGVAYAARGDYDRAIEYYERALELDPDDATVWSRLGHAYAARGDYDRAIEYYERALELDPEDETARYLLEHARRARQGQAGQGGGSGLNDIFEAQKIEWHECHHHHHH | 10 | < 1 | 84 | – | –
6 | affinity ligand SEQ ID NO: 172 (designed binder, biotinylated (AviTag system)) MGDEADRWYDQGAAYAARGDYDRAIEYYQRALELDPNNAWAWWELGVAYAARGDYDRAIEYYQRALELDPNDAVAWSRLGHAYAARGDYDRAIEHYQRALELDPNNEVARHLLEVARRAAACGLNDIFEAQKIEWHEHHHHHH | – | – | – | < 1 | 215
7 | affinity ligand SEQ ID NO: 173 (designed binder, biotinylated (AviTag system)) MGDEADRWYDQGAAYAARGDYDRAIEYYQRALELDPNNAWAWWELGVAYAARGDYDRAIEYYQRALELDPNDAVAWSRLGHAYAARGDYDRAIEYYQRALELDPNNEVARHLLEVARRAAACGLNDIFEAQKIEWHEHHHHHH | – | – | – | < 1 | 95
8 | affinity ligand SEQ ID NO: 174 (designed binder, biotinylated (AviTag system)) MGDEADRWYDQGAAYAARGDYDRAIEYYERALELDPNNAWAWWELGVAYAARGDYDRAIEYYQRALELDPNDAVAWARLGHAYAARGDYDRAIEYYQRALELDPNNEAARSNLEYARRAAACGLNDIFEAQKIEWHEHHHHHH | – | – | – | < 1 | 221
9 | affinity ligand SEQ ID NO: 164 (designed binder, biotinylated (AviTag system)) MGDEAERWYDLGAAYAARGDYDRAIEYYQRALELDPNDAWAWWELGVAYAARGDYDRAIEYYQRALELDLNNAVAWARLGIAYAARGDYDRAIEYYQRALELDPNNEVARDALEYARRARRC | – | – | – | < 1 | 82

Now from value to binder:

Row | Kd [1] [nM] | Kd [2] [nM] | Kd [3] [nM] | Kd [4] [nM] | Kd [5] [nM] | Binder
10 | 28 | < 1 | 67 | – | – | affinity ligand SEQ ID NO: 79 (designed binder, biotinylated (AviTag system)) MGGGGSAAAGDEADRWADLGAAYAARGDYDRAIEYYQRALELDPNNAWAWWDLGVAYAARGDYDRAIEYYQRALELDPNNAVAWRRLGHAYAARGDYDRAIEYYQRALELDPNNELAREQLERARRARHGQAGQGGGSGLNDIFEAQKIEWHECHHHHHH
11 | – | – | – | < 1 | 31 | affinity ligand SEQ ID NO: 165 (designed binder, biotinylated (AviTag system)) MDEAAHWEVQGAAYAARGDYDRAIEYYERALELDPNNAWAWEHLGWAYAARGDFDRAIEYYERALELDPDDAHAWFRLGFAYAARGDYDRAIEYYERALELDPEDELARAELESARRARQGQAGQGWAEFRQRLAAIRTRLEALGGSEAELAAFEREIAAFESELQAYAGAGNPEVEALRREAAAIRDELQAYRHNHHHHHHC
12 | – | – | – | < 1 | 31 | affinity ligand SEQ ID NO: 167 (designed binder, biotinylated (AviTag system)) MDEAARWEVQGAAYAARGDYDRAIEYYERALELDPNNAWAWEHLGWAYAARGDYDRAIEYYERALELDPDDAHSWFRLGFAYAVRGDYDRAIEYYERALELDPEDELARAELESARRARQGQAGQGWAEFRQRLAAIRTRLEALGGSEAELAAFEREIAAFESELQAYAGAGNPEVEALRREAAAIRDELQAYRHNHHHHHHC
13 | – | – | – | < 1 | 232 | affinity ligand SEQ ID NO: 168 (designed binder, biotinylated (AviTag system)) MDEVARWEVQGAAYAARGGYDRAIEYYERALELDPNNAWAWEHLGWAYAARGDYDRAIEYYERALELDPDDAHEWFRLGFAYAARGDYDRAIEYYERALELDPEDELARAELESARRARQGQAGQGWAEFRQRLAAIRTRLEALGGSEAELAAFEREIAAFESELQAYAGAGNPEVEALRREAAAIRDELQAYRHNHHHHHHC
14 | – | – | – | < 1 | 120 | affinity ligand SEQ ID NO: 166 (designed binder, biotinylated (AviTag system)) MDEAARWEVQGAAYAARGDYDRAIEYYERVLELDPNDAWAWEHLGWAYAARGDYDRAIEYYERALEVDPDDAHAWFRLGFAYAARGDYDRAMEYYERALELDPEDELARAELESARRARQGQAGQGWAEFRQRLAAIRTRLEALGGSEAELAAFEREIAAFESELQAYAGAGNPEVEALRREAAAIRDELQAYRHNHHHHHHC
15 | 10 | < 1 | 32 | – | – | affinity ligand SEQ ID NO: 88 (designed binder, biotinylated (AviTag system)) MGGGGSAAAGDEAQCWENQGAAYAARGDYDRAIEYYERALELDPNNAWAWWELGVAYAARGDYDRAIEYYERALELDPDDATAWSRLGHAYAARGDYDRAIEYYERALELDPEDETARYLLEHARRARQGQAGQGGGSGLNDIFEAQKIEWHECHHHHHH
16 | 8 | < 1 | 28 | – | – | affinity ligand SEQ ID NO: 86 (designed binder, biotinylated (AviTag system)) MGGGGSAAAGDEAQRWENQGAAYAARGDYDRAIECYESALELDPNNAWAWWELGVAYAARGDYDRAIEYYERALELDPDDAIAWSRLGHAYAARGDYDRAIEYYERALELDPEDETARYLLEHARRARQGQAGQGGGSGLNDIFEAQKIEWHECHHHHHH
17 | – | – | – | < 1 | 28 | affinity ligand SEQ ID NO: 170 (designed binder, biotinylated (AviTag system)) MGDEADRWYDQGAAYAARGDYDRAIEYYERALELDPNDAWAWWELGVAYAARGDYDRAIEYYQRALELDPNDAVAWARLGHAYAARGDYDRAIEYYQRALELDPNNEAARSNLEYARRAAACGLNDIFEAQKIEWHEHHHHHH
18 | – | – | – | < 1 | 242 | affinity ligand SEQ ID NO: 171 (designed binder, biotinylated (AviTag system)) MGDEADRWYYQGAAYAARGDYDRAIEYYERALELDPNNAWAWWELGVAYAARGDYDRAIEYYQRALELDPNDAVAWARLGHAYAARGDYDRAIEYYQRALELDPNNEAARSNLEYARRAAACGLNDIFEAQKIEWHEHHHHHH
19 | – | – | – | < 1 | 13 | affinity ligand SEQ ID NO: 163 (designed binder, biotinylated (AviTag system)) MGHHHHHHDEAERWYDLGAAYAARGDYDRAIEYYQRALELDPNDAWAWWELGVAYAARGDYDRAIEYYQRALELDLNNAVAWARLGIAYAARGDYDRAIEYYQRALELDPNNEVARDALEYARRARRAPKC

— patent US20250059258A1
